The nature of data set [1]: 3OST activity: 3-O sulfated products detected by LCMS after lyase digestion. The format is biochemical. On the procedure:
A study was conducted in accordance with embodiments of the present disclosure to confirm 3OST activity of enzymes comprising the amino acid sequence of SEQ ID NO: 24, SEQ ID NO: 26, or SEQ ID NO: 28 by detecting the presence of 3-O sulfated polysaccharide products as a result of their sulfotransfer reaction, using a reaction, using a similar LCMS procedure as in Example 3, except that the sulfo acceptor polysaccharide was commercially-available heparin (CAS code: 9041-08-1, available from Millipore Sigma). Even though the unmodified heparin contains ˜3.5% (w/w) of 3-O sulfated glucosamine residues, about ˜60% of the glucosamine residues are N,6-sulfated and are adjacent to a 2-O sulfated hexuronic acid residue, as in Formula X. Consequently, these N,6-sulfated glucosamine residues can still be 3-O sulfated.

Data set [2] is described as follows: 3OST activity confirmed by 1H NMR. The format is biochemical. The settings on record: PNS as aryl sulfate compound. Here is the method: Each enzyme was purified according to the procedure of Example 1. To each purified protein solution, 20 mg of an aryl sulfate compound (PNS or NCS) dissolved in 2 mL of reaction buffer (50 mM MES pH 7.0, 2 mM CaCl2)) was added to the protein solution and incubated at 37° C. for 10 min. 2.5 mL of 2 mg/mL solution of the commercial heparin polysaccharide utilized in Example 5 was added to protein/donor solution and incubated overnight at 37° C.
Each reaction was centrifuged at 5,000×g for 10 min, applied to a pre-wetted 30K MWCO Amicon-15 filter and centrifuged at 5,000×g for 10 min. The filter was washed once with 2 mL water, and centrifuged again. The filtrate was added to a 1K MWCO Dialysis membrane, dialyzed for 2 days in Milli-Q water, with water changes at 1 h, 2 h, 8 h, 16 h, 32 h, and then lyophilized. The dry, white powder was resuspended in 400 μL D20, lyophilized to remove exchangeable protons, then resuspended in 600 μL D2O and transferred to NMR tubes (Wilmad, 0.38 mm×7″). To determine if sulfotransfer took place, ^1H NMR spectra were obtained on a Bruker 600 MHz NMR, 32 scans, with water suppression. Within FIG. 30, the 3-O positions of any of the glucosamine residues can be sulfated by the 3OST enzyme. The sulfated 3-O position is circled in the central polysaccharide. […]

B1: SEQ ID NO: 26: engineered aryl sulfate-dependent 3OST enzyme, mutant of isoform 1 of the human 3OST enzyme (protein)
chain: MGTASNGSTQQLPQTIIIGVGHGGTRALLEMLSLHPDVAAAENEVHFFDWEEHYSQGLGWYLTQMPFSSPHQLTVEKTHSYFTSPKVPERIHSMNPTIRLLLILRDPSERVLSAYTHMLYNHLQKHKPYPPIEDLLMRDGRLNLDYTGLNRSLYHAHMLNWLRFFPLGHIHIVDGDRLIRDPFPEIQKVERFLKLSPQINASNFYFNKTKGFYCLRDSGKDRCLHESKGRAHPQVDPKLLDKLHEYFHEPNKKFFKLVGRTFDWH
modifications: Amino acid sequence encoding for engineered arylsulfate-dependent 3-O-sulfotransferase variant 2
notes: engineered aryl sulfate-dependent 3OST enzyme, mutant of isoform 1 of the human 3OST enzyme
On to B1, for which, in data set [1] (NCS as aryl sulfate compound), the “3OST sulfotransferase activity with NCS” value was “active as a sulfotransferase”. For the same molecule, the “abundance of 3-O sulfation in product” value in data set [1] (relative to the commercial heparin standard) is on record as “higher abundance of 3-O sulfation”. In addition, in data set [2], the “3OST sulfotransferase activity with PNS (NMR)” value was 3-O sulfotransferase activity.

The values above are taken from patent US11629364B2, “Methods for synthesizing anticoagulant polysaccharides” (OPTIMVIA, LLC, priority 2019, dated 2023).
